Reference: patent publication US5756454

Tests used:
[1] = molecular target: collagen receptor on human platelets (human)
[2] = molecular target: collagen receptor on human platelets (human); remark: listed apart in the source
[3] = molecular target: collagen receptor (VL A 2) on MTLn3 cells (rat mammary tumor cells) (rat)
[4] = molecular target: collagen receptor on human platelets (human); remark: listed apart in the source
[5] = molecular target: collagen receptor (VL A 2) on MTLn3 cells (rat mammary tumor cells) (rat); remark: listed apart in the source
[6] = molecular target: collagen receptor on human platelets (human); remark: listed apart in the source

Substance: collagen-induced platelet aggregation inhibitor isolated from saliva of Triatoma pallidipennis
- released ATP, % of total ATP content, of collagen-treated platelets (30 µl = 10 µg protein of "Superose"-pool; 49% without inhibitor) (% of total ATP content) [1]: 2
- maximal aggregation of filtrated platelets induced with thrombin (0.06 U/ml), with 200 µl "Superose"-pool (control 75%) (% maximal aggregation) (thrombin): 75
- adherent platelets per mm^2 on collagen type I (50 µl of "Superose"-pool at 0.5 mg protein/ml; 13500 without inhibitor) (adherent platelets per mm^2) [2]: 6500
- cell attachment (cpm) of 51Cr-labelled MTLn3 cells to collagen type III (10 µl of "Superose"-pool; 2215 cpm without inhibitor) [3]: 1080 cpm
- IC50 of inhibition of collagen-induced platelet aggregation (highly purified protein) [4]: 50 nM
- IC50 of inhibition of collagen-induced platelet aggregation (partially purified "Superose"-pool) [4]: 2.5 µg per ml
- IC50 of adhesion-inhibition of metastatic tumor cells to collagen (highly purified protein) [5]: 100 nM
- inhibition of collagen-induced aggregation of human platelets (platelet-rich plasma, aggregometer; "Superose"-pool) (% inhibition of aggregation) [6]: 70
